{"source": "paper PMC10397247", "key": {"4H112-bA": {"target": "T1, 4H112-bA", "T1 chain": "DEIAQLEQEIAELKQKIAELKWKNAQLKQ", "assay": "two-hybrid library CCNG1;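 also: natural log of median RNA to DNA barcode read ratio; higher means stronger binding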"}, "4H1158-bA": {"target": "T2, 4H1158-bA", "T2 chain": "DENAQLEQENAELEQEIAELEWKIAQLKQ", "assay": "two-hybrid library CCNG1"}, "4H118-bA": {"target": "T3, 4H118-bA", "T3 chain": "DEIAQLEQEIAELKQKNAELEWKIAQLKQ", "assay": "two-hybrid library CCNG1"}, "4H170-bA": {"target": "T4, 4H170-bA", "T4 chain": "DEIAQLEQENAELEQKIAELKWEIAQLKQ", "assay": "two-hybrid library CCNG1"}, "4H1831-bA": {"target": "T5, 4H1831-bA", "T5 chain": "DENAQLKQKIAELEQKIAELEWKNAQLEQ", "assay": "two-hybrid library CCNG1"}, "4H2586-bA": {"target": "T6, 4H2586-bA", "T6 chain": "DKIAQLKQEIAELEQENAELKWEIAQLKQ", "assay": "two-hybrid library CCNG1"}, "4H2627-bA": {"target": "T7, 4H2627-bA", "T7 chain": "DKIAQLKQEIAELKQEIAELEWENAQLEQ", "assay": "two-hybrid library CCNG1"}, "4H2673-bA": {"target": "T8, 4H2673-bA", "T8 chain": "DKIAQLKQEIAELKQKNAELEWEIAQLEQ", "assay": "two-hybrid library CCNG1"}, "4H2702-bA": {"target": "T9, 4H2702-bA", "T9 chain": "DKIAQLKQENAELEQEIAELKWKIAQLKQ", "assay": "two-hybrid library CCNG1"}, "4H3010-bA": {"target": "T10, 4H3010-bA", "T10 chain": "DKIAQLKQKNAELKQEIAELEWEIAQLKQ", "assay": "two-hybrid library CCNG1"}, "4H3112-bA": {"target": "T11, 4H3112-bA", "T11 chain": "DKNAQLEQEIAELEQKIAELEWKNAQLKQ", "assay": "two-hybrid library CCNG1"}, "4H3427-bA": {"target": "T12, 4H3427-bA", "T12 chain": "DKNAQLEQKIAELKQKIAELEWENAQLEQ", "assay": "two-hybrid library CCNG1"}, "4H346-bA": {"target": "T13, 4H346-bA", "T13 chain": "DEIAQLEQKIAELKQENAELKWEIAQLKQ", "assay": "two-hybrid library CCNG1"}, "4H3907-bN": {"target": "T14, 4H3907-bN", "T14 chain": "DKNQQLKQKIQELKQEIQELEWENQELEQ", "assay": "two-hybrid library CCNG1"}, "4H3926-bA": {"target": "T15, 4H3926-bA", "T15 chain": "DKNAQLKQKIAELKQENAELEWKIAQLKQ", "assay": "two-hybrid library CCNG1"}, "4H4073-bA": {"target": "T16, 4H4073-bA", "T16 chain": "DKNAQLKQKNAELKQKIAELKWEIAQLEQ", "assay": "two-hybrid library CCNG1"}, "4H457-bA": {"target": "T17, 4H457-bA", "T17 chain": "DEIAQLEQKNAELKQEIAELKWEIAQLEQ", "assay": "two-hybrid library CCNG1"}, "4H575-bA": {"target": "T18, 4H575-bA", "T18 chain": "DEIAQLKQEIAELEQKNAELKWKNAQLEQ", "assay": "two-hybrid library CCNG1"}, "4H683-bA": {"target": "T19, 4H683-bA", "T19 chain": "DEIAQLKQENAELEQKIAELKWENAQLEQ", "assay": "two-hybrid library CCNG1"}, "4H754-bA": {"target": "T20, 4H754-bA", "T20 chain": "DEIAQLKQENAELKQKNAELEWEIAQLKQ", "assay": "two-hybrid library CCNG1"}, "4H780-bA": {"target": "T21, 4H780-bA", "T21 chain": "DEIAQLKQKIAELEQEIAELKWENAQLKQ", "assay": "two-hybrid library CCNG1"}, "4H797-bA": {"target": "T22, 4H797-bA", "T22 chain": "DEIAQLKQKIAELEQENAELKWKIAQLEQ", "assay": "two-hybrid library CCNG1"}, "4H855-bA": {"target": "T23, 4H855-bA", "T23 chain": "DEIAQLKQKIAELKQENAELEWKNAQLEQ", "assay": "two-hybrid library CCNG1"}, "4H918-bA": {"target": "T24, 4H918-bA", "T24 chain": "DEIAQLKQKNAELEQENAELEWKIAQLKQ", "assay": "two-hybrid library CCNG1"}, "4H953-bA": {"target": "T25, 4H953-bA", "T25 chain": "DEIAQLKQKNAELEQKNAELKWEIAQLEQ", "assay": "two-hybrid library CCNG1"}, "4H968-bA": {"target": "T26, 4H968-bA", "T26 chain": "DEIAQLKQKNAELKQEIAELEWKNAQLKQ", "assay": "two-hybrid library CCNG1"}, "O8-bH": {"target": "T27, O8-bH", "T27 chain": "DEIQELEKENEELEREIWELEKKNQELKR", "assay": "two-hybrid library CCNG1"}, "P2-AA-1HGe-A": {"target": "T28, P2-AA-1HGe-A", "T28 chain": "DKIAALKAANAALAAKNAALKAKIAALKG", "assay": "two-hybrid library CCmax", "conditions": "mean of both orientations"}, "P2-AA-1HGe-D": {"target": "T29, P2-AA-1HGe-D", "T29 chain": "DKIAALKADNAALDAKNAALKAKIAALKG", "assay": "two-hybrid library CCmax", "conditions": "mean of both orientations"}, "P2-AA-1HGe-M": {"target": "T30, P2-AA-1HGe-M", "T30 chain": "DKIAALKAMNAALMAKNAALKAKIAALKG", "assay": "two-hybrid library CCmax", "conditions": "mean of both orientations"}, "P2-AA-1HGe-Q": {"target": "T31, P2-AA-1HGe-Q", "T31 chain": "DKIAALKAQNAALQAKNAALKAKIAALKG", "assay": "two-hybrid library CCmax", "conditions": "mean of both orientations"}, "P2-AA-1HGe-R": {"target": "T32, P2-AA-1HGe-R", "T32 chain": "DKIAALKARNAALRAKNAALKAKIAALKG", "assay": "two-hybrid library CCmax", "conditions": "mean of both orientations"}, "P2-AA-1HGe-T": {"target": "T33, P2-AA-1HGe-T", "T33 chain": "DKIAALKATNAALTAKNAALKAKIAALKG", "assay": "two-hybrid library CCmax", "conditions": "mean of both orientations"}, "P2-AA": {"target": "T34, P2-AA", "T34 chain": "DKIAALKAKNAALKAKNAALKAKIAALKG", "assay": "two-hybrid library CCmax", "conditions": "mean of both orientations"}, "P11bH1": {"target": "T35, P11bH1", "T35 chain": "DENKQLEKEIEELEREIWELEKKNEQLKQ", "assay": "two-hybrid library CCNG1"}, "P12bH1": {"target": "T36, P12bH1", "T36 chain": "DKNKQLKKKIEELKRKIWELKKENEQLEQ", "assay": "two-hybrid library CCNG1"}, "P1bH1": {"target": "T37, P1bH1", "T37 chain": "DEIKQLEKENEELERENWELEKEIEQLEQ", "assay": "two-hybrid library CCNG1"}, "P2bH1": {"target": "T38, P2bH1", "T38 chain": "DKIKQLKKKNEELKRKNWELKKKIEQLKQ", "assay": "two-hybrid library CCNG1"}, "P3bH1": {"target": "T39, P3bH1", "T39 chain": "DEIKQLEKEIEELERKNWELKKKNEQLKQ", "assay": "two-hybrid library CCNG1"}, "P4bH1": {"target": "T40, P4bH1", "T40 chain": "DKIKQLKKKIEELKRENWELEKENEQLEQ", "assay": "two-hybrid library CCNG1"}, "P5bH1": {"target": "T41, P5bH1", "T41 chain": "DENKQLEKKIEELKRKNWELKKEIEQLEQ", "assay": "two-hybrid library CCNG1"}, "P6bH1": {"target": "T42, P6bH1", "T42 chain": "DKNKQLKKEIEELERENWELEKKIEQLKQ", "assay": "two-hybrid library CCNG1"}, "P7bH1": {"target": "T43, P7bH1", "T43 chain": "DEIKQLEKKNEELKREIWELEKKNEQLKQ", "assay": "two-hybrid library CCNG1"}, "P8bH1": {"target": "T44, P8bH1", "T44 chain": "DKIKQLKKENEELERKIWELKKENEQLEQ", "assay": "two-hybrid library CCNG1"}, "P9bH1": {"target": "T45, P9bH1", "T45 chain": "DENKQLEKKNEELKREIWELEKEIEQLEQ", "assay": "two-hybrid library CCNG1"}}, "data": [{"binder": "DEIAQLEQEIAELKQKIAELKWKNAQLKQ", "note": "[4H112-bA]", "values": [{"measurement": "interaction score", "setting": "4H112-bA", "value": 2.02}, {"measurement": "interaction score", "setting": "4H1158-bA", "value": 0.722}, {"measurement": "interaction score", "setting": "4H118-bA", "value": -1.17}, {"measurement": "interaction score", "setting": "4H170-bA", "value": 0.905}, {"measurement": "interaction score", "setting": "4H1831-bA", "value": -0.538}, {"measurement": "interaction score", "setting": "4H2586-bA", "value": -0.329}, {"measurement": "interaction score", "setting": "4H2627-bA", "value": 1.89}, {"measurement": "interaction score", "setting": "4H2673-bA", "value": 1.17}, {"measurement": "interaction score", "setting": "4H2702-bA", "value": 0.586}, {"measurement": "interaction score", "setting": "4H3010-bA", "value": 1.69}, {"measurement": "interaction score", "setting": "4H3112-bA", "value": 1.9}, {"measurement": "interaction score", "setting": "4H3427-bA", "value": 1.34}, {"measurement": "interaction score", "setting": "4H346-bA", "value": -0.491}, {"measurement": "interaction score", "setting": "4H3907-bN", "value": 1.94}, {"measurement": "interaction score", "setting": "4H3926-bA", "value": 0.327}, {"measurement": "interaction score", "setting": "4H4073-bA", "value": 1.5}, {"measurement": "interaction score", "setting": "4H457-bA", "value": 1.18}, {"measurement": "interaction score", "setting": "4H575-bA", "value": -0.781}, {"measurement": "interaction score", "setting": "4H683-bA", "value": 0.303}, {"measurement": "interaction score", "setting": "4H754-bA", "value": -0.627}, {"measurement": "interaction score", "setting": "4H780-bA", "value": -0.588}, {"measurement": "interaction score", "setting": "4H797-bA", "value": 0.104}, {"measurement": "interaction score", "setting": "4H855-bA", "value": 0.496}, {"measurement": "interaction score", "setting": "4H918-bA", "value": -1.12}, {"measurement": "interaction score", "setting": "4H953-bA", "value": 0.0535}, {"measurement": "interaction score", "setting": "4H968-bA", "value": 0.422}, {"measurement": "interaction score", "setting": "O8-bH", "value": -2.98}]}, {"binder": "DEIAALEAWNAALWAENAALEAEIAALEG", "note": "[P1-AA-1HGe-W]", "values": [{"measurement": "interaction score", "setting": "P2-AA-1HGe-A", "value": 1.9}, {"measurement": "interaction score", "setting": "P2-AA-1HGe-D", "value": 1.27}, {"measurement": "interaction score", "setting": "P2-AA-1HGe-M", "value": 2.21}, {"measurement": "interaction score", "setting": "P2-AA-1HGe-Q", "value": 1.87}, {"measurement": "interaction score", "setting": "P2-AA-1HGe-R", "value": 1.34}, {"measurement": "interaction score", "setting": "P2-AA-1HGe-T", "value": 2.15}, {"measurement": "interaction score", "setting": "P2-AA", "value": 1.7}]}, {"binder": "DENKQLEKEIEELEREIWELEKKNEQLKQ", "note": "[P11bH1]", "values": [{"measurement": "interaction score", "setting": "P11bH1", "value": 0}, {"measurement": "interaction score", "setting": "P12bH1", "value": 0.0252}, {"measurement": "interaction score", "setting": "P1bH1", "value": -2.02}, {"measurement": "interaction score", "setting": "P2bH1", "value": 1.25}, {"measurement": "interaction score", "setting": "P3bH1", "value": -0.0263}, {"measurement": "interaction score", "setting": "P4bH1", "value": 1.12}, {"measurement": "interaction score", "setting": "P5bH1", "value": 1.1}, {"measurement": "interaction score", "setting": "P6bH1", "value": 0.725}, {"measurement": "interaction score", "setting": "P7bH1", "value": -0.507}, {"measurement": "interaction score", "setting": "P8bH1", "value": 0.239}, {"measurement": "interaction score", "setting": "P9bH1", "value": -0.076}]}]}
